# Results reported in patent publication US12233115B2, “Long-acting parathyroid hormone” (Extend Biosciences, Inc., priority 2022, dated 2025).
# Where two headings read alike, the source gives them in different places.
# What was measured:
# [1] = Repeat dose pharmacokinetics of EXT608 in male and female cynomolgus monkeys; assay type: in vivo; conditions: cynomolgus monkey; for Cmin: 0-48 h; for AUC(0-t): sc
# Protocol: 21-Day Experiment: EXT608 was formulated in 20 mM sodium acetate pH=5.5 buffer with 0.8% sodium chloride. In a repeat dose toxicokinetic study, groups of 4 cynomolgus monkeys (2 males+2 females weighing approximately 2.5 kg each) were subcutaneously dosed every other day at a volume of 0.05 ml/kg with either 1.4, 7 or 20 μg/kg of EXT608. On the last day of dosing, Day 21, blood samples (˜1.0 ml) were collected at t=0 (pre-dose), 0.5, 1, 3, 6, 12, 24, 48, and 72 h. Each blood sample was collected from the saphenous vein into tubes containing K2EDTA and centrifuged (˜2700 g, ˜10 min, ˜5° C.) within 1 hour of collection. Plasma was recovered and divided evenly into duplicate aliquots and frozen. 90-Day Experiment: EXT608 was formulated in 10 mM sodium acetate pH=5.5 buffer with 0.8% sodium chloride and 0.1% Polysorbate 80. In a repeat dose toxicokinetic study, groups of 6 cynomolgus monkeys (3 males+3 females) were subcutaneously dosed every other day at a volume of 0.05 ml/kg with either 0.7 or 2 μg/kg of EXT608. On the last day of dosing, Day 89, blood samples (˜1.0 ml) were collected at t=0 (pre-dose), 0.5, 1, 3, 6, 12, 24, 48, and 72 h. Plasma was prepared as described above for the 21-Day experiment. […] Group-averaged EXT608 levels as a function of time are shown in FIG. 14 for the last dose administration after either 21 days of every other day dosing (20, 7, and 1.4 μg/kg) or 89 days of every other day dosing (2 and 0.7 μg/kg). Surprising, the PK profiles changed as a function of dose level. […] Pharmacokinetic parameters were determined from the plasma concentration versus time data (Table 7) by a non-compartmental extravascular administration model with uniform weighting using Phoenix® WinNonlin® Version 6.4 (Certara L.P. (Pharsight), Princeton, NJ). Pharmacokinetic analysis was performed on data for individual animals collected from t=0 to 72 h following the last administered dose. […] It is noted that the t1/2 values were calculated from less than three half-lives of data. […] The Cmax/Cmin ratio represents the peak-to-trough ratio of EXT608 concentration that is observed during a dosing period. […] Without being bound by theory, the low peak-to-trough ratios observed at low doses could be the result of a slower rate of absorption of EXT608 from the subcutaneous space into circulation. A low peak-to-trough ratio is desirable in many therapeutic applications including parathyroid hormone replacement therapy. This is because it allows dosing at levels close to the ideal efficacious dose without going too high where toxicity is observed, or too low where the efficacy is reduced.
# [2] = tested on: healthy human participants; experiment: Single dose pharmacodynamics of EXT608 in healthy humans (serum calcium, endogenous PTH(1-84), urinary calcium); assay type: in vivo; conditions: any dose level tested, about 36 hours post-administration (data not shown)
# Protocol: EXT608 vastly improves the serum half-life in humans in a dose-dependent manner. Sterile EXT608 formulations were prepared at a concentration of 0.4 mg/ml in 10 mM sodium acetate buffer pH=5.5, 4.5% mannitol, and 0.25% Polysorbate 80 and filled into sterile vials. Healthy human participants were administered EXT608 by subcutaneous injection in the abdomen at doses of 0, 36, 108, 216, or 324 micrograms (n=3). Pharmacodynamics: Blood samples were collected at −24, −1, 0.5, 1, 2, 4, 8, 12, 18, 24, 36, 48, and 72 hours relative to dosing as well as on Days 5, 7, 14, 21, and 28 after dosing. They were processed to serum and submitted to Quest Diagnostics for standard blood chemistry analysis including total calcium and albumin. EXT608 raised serum calcium levels in a dose-dependent fashion and was able to maintain elevated calcium levels for 24 h. Blood samples (1.5 ml) were collected at −1, 4, 24, 48, and 72 hours relative to dosing as well as on Days 5, 7, 14, 21, and 28 after dosing. They were processed to EDTA plasma and submitted to Quest Diagnostics for intact PTH(1-84) analysis (Test Code #35202). In healthy humans, under conditions of elevated serum calcium, the body will attempt to restore normal calcium levels by a variety of mechanisms including suppression of endogenous PTH(1-84). […]
# [3] = in vivo, 1.4 ug/kg, every-other-day SC 1.4 μg/kg, 21 days
compound,measurement,setting,value
C=C1CC[C@H](OCCCNC(=O)CCOCCOCCOCCOCCOCCOCCOCCOCCOCCOCCOCCOCCOCCOCCOCCOCCOCCOCCOCCOCCOCCOCCOCCOCCOCCOCCOCCOCCOCCOCCOCCOCCOCCOCCOCCOCCNC(=O)CCN2C(=O)CC(SC[C@H](NC(=O)[C@H](Cc3ccccc3)NC(=O)[C@H](CC(N)=O)NC(=O)[C@H](Cc3c[nH]cn3)NC(=O)[C@@H](NC(=O)[C@H](CC(=O)O)NC(=O)[C@H](CCC(N)=O)NC(=O)[C@H](CC(C)C)NC(=O)[C@H](CCCCN)NC(=O)[C@H](CCCCN)NC(=O)[C@H](CCCNC(=N)N)NC(=O)[C@H](CC(C)C)NC(=O)[C@H](Cc3c[nH]c4ccccc34)NC(=O)[C@H](CCC(=O)O)NC(=O)[C@@H](NC(=O)[C@H](CCCNC(=N)N)NC(=O)[C@H](CCC(=O)O)NC(=O)[C@H](CCSC)NC(=O)[C@H](CO)NC(=O)[C@H](CC(N)=O)NC(=O)[C@H](CC(C)C)NC(=O)[C@H](Cc3c[nH]cn3)NC(=O)[C@H](CCCCN)NC(=O)CNC(=O)[C@H](CC(C)C)NC(=O)[C@H](CC(N)=O)NC(=O)[C@H](Cc3c[nH]cn3)NC(=O)[C@H](CCSC)NC(=O)[C@H](CC(C)C)NC(=O)[C@H](CCC(N)=O)NC(=O)[C@@H](NC(=O)[C@H](CCC(=O)O)NC(=O)[C@H](CO)NC(=O)[C@@H](NC(=O)[C@@H](N)CO)C(C)C)[C@@H](C)CC)C(C)C)C(C)C)C(N)=O)C2=O)C/C1=C/C=C1\CCC[C@]2(C)[C@@H]([C@H](C)CCCC(C)(C)O)CC[C@@H]12 (some centres unmarked) [EXT608],Cmin,"[1]; every-other-day SC 0.7 μg/kg, 89 days",0.600 ng/mL
same,Cmin,"[1]; every-other-day SC 1.4 μg/kg, 21 days",0.485 ng/mL
same,Cmin,"[1]; every-other-day SC 2 μg/kg, 89 days",0.635 ng/mL
same,Cmin,"[1]; every-other-day SC 7 μg/kg, 21 days",0.991 ng/mL
same,Cmin,"[1]; every-other-day SC 20 μg/kg, 21 days",1.97 ng/mL
same,AUC(0-t),"[1]; in vivo, 0.7 ug/kg, every-other-day SC 0.7 μg/kg, 89 days, read-out: AUC0-48 h",45.4 ng·h/mL
same,AUC(0-t),"[1]; in vivo, 0.7 ug/kg, every-other-day SC 0.7 μg/kg, 89 days, read-out: AUClast",61.6 ng·h/mL
same,AUC(0-t),"[1]; in vivo, 1.4 ug/kg, every-other-day SC 1.4 μg/kg, 21 days, read-out: AUC0-48 h",41.5 ng·h/mL
same,AUC(0-t),"[1]; in vivo, 1.4 ug/kg, every-other-day SC 1.4 μg/kg, 21 days, read-out: AUClast",48 ng·h/mL
same,AUC(0-t),"[1]; in vivo, 2 ug/kg, every-other-day SC 2 μg/kg, 89 days, read-out: AUC0-48 h",63.1 ng·h/mL
same,AUC(0-t),"[1]; in vivo, 7 ug/kg, every-other-day SC 7 μg/kg, 21 days, read-out: AUC0-48 h",147 ng·h/mL
same,AUC(0-t),"[1]; in vivo, 20 ug/kg, every-other-day SC 20 μg/kg, 21 days, read-out: AUC0-48 h",401 ng·h/mL
same,Cmax,[1]; [3],1.63 ng/mL
same,Tmax,[1]; [3],1.8 h
same,Cmax,"[1]; in vivo, 20 ug/kg, every-other-day SC 20 μg/kg, 21 days",38.1 ng/mL
same,half-life,"[1]; in vivo, repeated every-other-day SC dosing, across doses, calculated from less than three half-lives of data, read-out: t1/2 of elimination",34.7 to 51 h
same,effect on urinary calcium,[2],did not cause a significant increase
